For series [1], the target named is T1, EWS RRM-RG2-ZnF (UniProt Q01844 361-549). As to the kind of experiment: EMSA.
Series [2] has as its target T2, EWS RRM-RG2 (UniProt Q01844 361-517).
T2 sequence: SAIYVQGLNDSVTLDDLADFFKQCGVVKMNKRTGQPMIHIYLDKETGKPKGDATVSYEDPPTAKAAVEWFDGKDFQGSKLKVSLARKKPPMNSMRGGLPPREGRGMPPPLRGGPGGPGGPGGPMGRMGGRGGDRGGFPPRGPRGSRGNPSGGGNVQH
In words: EMSA.

Series [3] addresses T2, EWS RRM-RG2. In words: EMSA. The source holds these as a separate data set.
The target of series [4] is T1, EWS RRM-RG2-ZnF. In words: EMSA. The source holds these as a separate data set.
The target of a further series is T3, EWS RRM (UniProt Q01844 361-447).
T3 sequence: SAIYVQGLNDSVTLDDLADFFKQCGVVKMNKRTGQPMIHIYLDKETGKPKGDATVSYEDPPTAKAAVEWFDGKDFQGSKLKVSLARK
As to the kind of experiment: ITC.

The target of series [5] is T1, EWS RRM-RG2-ZnF. As to the kind of experiment: ITC.
Target sequence in this assay (Q01844 361-549): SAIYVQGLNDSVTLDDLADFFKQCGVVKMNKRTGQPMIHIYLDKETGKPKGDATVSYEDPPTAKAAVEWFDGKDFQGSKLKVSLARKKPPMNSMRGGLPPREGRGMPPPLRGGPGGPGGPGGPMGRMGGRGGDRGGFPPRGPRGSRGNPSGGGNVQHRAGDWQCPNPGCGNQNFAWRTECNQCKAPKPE
Series [6] addresses T2, EWS RRM-RG2. As to the kind of experiment: ITC.

Where two headings read alike, the source gives them in different places.

As to GGAUCUUUAACUACUCAAGAUACUGAACAUGACAUGGUA (structured_RNA) [SON-GGU], the binding result with EWS RRM-RG2-ZnF [1] and with EWS RRM-RG2 [2] was “binds” throughout.

B1: RNA:DNA hybrid (DNA:RNA)
RNA: GCAGCUGGCACGACAGGUAUGAAUC
DNA: GATTCATACCTGTCGTGCCAGCTGC
B1: the binding result with EWS RRM-RG2 [3] and with EWS RRM-RG2-ZnF [4] was “binds” throughout.

Regarding TAAGGGAGGGCGGGAGGGAA (structured_DNA) [pu20m2 DNA G4], the equilibrium dissociation constant (Kd) in the series with EWS RRM stood at 22.3 ± 6.8 µM; with EWS RRM-RG2-ZnF [5], 3.96 ± 0.7 µM; with EWS RRM-RG2 [6], 3.28 ± 0.5 µM.

Values taken from article PMC10233817.
